US20160171150A1, “Chemical Modulators of Pro-Apoptotic BAX and BCL-2 Polypeptides” (Dana-Farber Cancer Institute, Inc., priority 2008, published 2016)

Target: T1, BAX (Homo sapiens, UniProt Q07812)
T1 construct: Full-length human BAX-encoding cDNA (aa 1-192) was cloned into pTYB1 plasmid; made in house; host or cells: Escherichia coli BL21(DE3)
Assay: NMR analysis of BIM SAHB binding to BAX
Details: 1H-15N correlation spectrum, BIM SAHB titration
From the text: To investigate the initiating event for BAX activation, the interaction of BAX with the BH3 ligand BIM SAHB was studied. […] BIM SAHB binding to BAX was monitored using Nuclear Magnetic Resonance (NMR) spectroscopy. Compared to the ^1H-^15N correlation spectrum of BAX, the addition of BIM SAHB broadened and shifted select NMR cross-peaks, indicating fast exchange between the bound and unbound conformations of BAX. The overall features of the NMR spectra were quite similar except for significant changes in the loop residues between α1 and α2 upon BIM SAHB binding. […] Significant changes were also observed for the side-chain NH2 of Q28, Q32, and Q52. […]
Screening by NMR is conducted by recording ^1H-^13C filtered-1D experiments of uniformly ^13C-labeled BAX at 25-50 μM concentrations, in the absence and presence of compounds at 50-100 μM concentrations. […] The weighted average chemical shift difference is calculated as √{square root over ({(ΔH)2+(ΔN/5)2}/2)} in p.p.m. and plotted as a function of the residue number of BAX. […] NMR experiments are processed with the NMRPipe spectral analysis package and chemical shifts variations measured with NMRView software. NMR spectra are recorded, for example, at 30° C. on Bruker Avance 600 MHz equipped with a z-shielded gradient, triple resonance cryoprobe.

T1 sequence (Q07812 whole entry, the tested form may be a part): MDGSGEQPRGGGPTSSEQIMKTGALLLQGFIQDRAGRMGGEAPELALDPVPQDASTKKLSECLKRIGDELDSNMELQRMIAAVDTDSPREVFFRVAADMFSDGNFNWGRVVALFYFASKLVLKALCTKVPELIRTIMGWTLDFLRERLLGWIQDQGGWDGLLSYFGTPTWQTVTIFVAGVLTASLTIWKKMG

## BIM SAHB: hydrocarbon-stapled BIM BH3 peptide (SEQ ID NO:3), Stabilized Alpha-Helix of BCL-2 domain; direct BAX-activating compound
  binding to BAX (chemical shift perturbation mapping): revealed interactions at a discrete subset of BAX residues
